Source: patent US10260068B2, “Prophylactic agent and therapeutic agent for fibrodysplasia ossificans progressiva” (Sumitomo Dainippon Pharma Co., Ltd., priority 2014, dated 2019)

T1: FOP patient-derived ACVR1 (Homo sapiens, UniProt Q04771, R206H)
T1 construct: The patient cells were confirmed to be cells having a typical FOP-associated mutation in the ACVR1 gene; endogenous in cells; host or cells: mesenchymal stem cell-like cells differentiated from an FOP patient-derived iPS cell line
T1 sequence (Q04771 21-509 R206H): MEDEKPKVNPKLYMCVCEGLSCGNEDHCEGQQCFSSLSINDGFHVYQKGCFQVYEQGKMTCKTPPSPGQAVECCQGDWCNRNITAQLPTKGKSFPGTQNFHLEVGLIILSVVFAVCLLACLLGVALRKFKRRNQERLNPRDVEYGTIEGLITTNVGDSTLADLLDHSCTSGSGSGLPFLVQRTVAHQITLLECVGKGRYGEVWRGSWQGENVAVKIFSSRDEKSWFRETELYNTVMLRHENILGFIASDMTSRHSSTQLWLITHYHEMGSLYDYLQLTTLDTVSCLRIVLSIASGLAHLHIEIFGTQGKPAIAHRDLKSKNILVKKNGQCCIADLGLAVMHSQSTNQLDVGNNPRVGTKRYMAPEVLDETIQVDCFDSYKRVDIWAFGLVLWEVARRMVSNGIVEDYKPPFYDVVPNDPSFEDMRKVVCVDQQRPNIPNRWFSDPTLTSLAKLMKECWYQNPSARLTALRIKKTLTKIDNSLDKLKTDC


Columns and labels:
[1] = tested on: SMAD1/5/8; test: SMAD1/5/8 phosphorylation by Western blotting in FOP patient derived cells; assay type: cell-based, human; conditions: for amount of total SMAD1/5/8: Western blotting, 60 minutes treatment, FOP patient derived and gene-corrected clone derived cells
Procedure: Mesenchymal stem cell-like cells from a patient iPS cell line and a gene-corrected iPS cell clone were each prepared by the same method as Example 1. Culturing was conducted for 60 minutes with addition of 10 ng/mL and 100 ng/mL of human activin A or 100 ng/mL of human BMP-7 to the mesenchymal stem cell-like cells. The cells were then solubilized with 300 μL of a dissolving solution (70 mM Tris-HCl buffer solution, pH 6.8, 11.2% glycerol, 3% sodium dodecyl sulfate), and a cell extract was prepared. The amount of phosphorylated SMAD1/5/8 and the amount of total SMAD1/5/8 in the obtained cell extract were quantified by Western blotting. As the primary antibody for phosphorylated SMAD1/5/8 there was used rabbit anti-phosphorylated SMAD1/5/8 antibody [product of Cell Signaling Tech., trade name: Phospho-Smad1 (Ser463/465)/Smad5 (Ser463/465)/Smad8 (Ser426/428) Antibody (Rabbit)], and as the primary antibody for total SMAD1/5/8 there was used rabbit anti-total SMAD1/5/8 antibody [product of Santa Cruz Biotechnology, trade name: Smad1/5/8 Antibody (N-18)-R (Rabbit)]. The secondary antibody used was horseradish peroxidase conjugated anti-rabbit antibody (product of Cell Signaling Tech., trade name: Anti-rabbit IgG, HRP-linked Antibody). The substrate used for chemiluminescence was ECL Prime (product of GE Healthcare), and ChemiDocXRSPlus (product of Bio-Rad Laboratories, Inc.) was used for the detection.

[2] = molecular target: T1, FOP patient-derived ACVR1; test: Luciferase reporter (BMP responsive sequence) transcription activity via ACVR1 in FOP patient derived cells; assay type: cell-based; conditions: ligand 1, 10, 100 ng/mL, 16 hours, significant at 10 and 100 ng/mL vs untreated group
Source text: Following the method of Yamanaka et al. (Cell, 2007, 131 (5), […]), FOP patient-derived iPS cells (hereunder also referred to as “patient-derived iPS cell line”) were established. The patient cells were confirmed to be cells having a typical FOP-associated mutation in the ACVR1 gene. The mutation is a substitution of the 206th arginine residue of the amino acid sequence of ACVR1 (the amino acid sequence listed as SEQ ID NO: 10) with a histidine residue. Next, for use as a control, an iPS cell line with the ACVR1 gene mutation repaired to the normal type (wild type) by gene repair by a BAC knockin vector (hereunder also referred to as “gene-corrected iPS cell clone” or “gene-rescued iPS cell clone”) was established.
The patient-derived iPS cell line and gene-corrected iPS cell line were cultured on the matrix of a Matrigel coated plate (trade name: Growth Factor Reduced (GFR)BD Matrigel® by Becton & Dickinson), using mTeSR1 (Stem Cell Technologies) for 2 days under feeder-free conditions. Next, using serum-free medium [F12 Nutrient Mixture (product of Gibco)/Iscove's Modified Dulbecco's Medium (IMDM) (product of Sigma-Aldrich Japan, KK.)/0.5% bovine serum albumin (BSA) (product of Sigma-Aldrich Japan, KK.)/1% Chemically Defined Lipid (CD-Lipid) (product of Gibco, trade name: Chemically Defined Lipid Concentrate)/15 μg/mL apotransferrin (product of Sigma-Aldrich Japan, KK., trade name: apo-Transferrin human)/7 μg/mL insulin (product of Wako Pure Chemical Industries, Ltd., trade name: Insulin, Human, recombinant)/0.45 mM 1-Thioglycerol (product of Sigma-Aldrich Japan, KK.)] with addition of 10 μM SB-431542 (product of Selleck Chemicals) and 1 μM CHIR99021 (product of Wako Pure Chemical Industries, Ltd.), the patient-derived iPS cell line and gene-corrected iPS cell line were further cultured for 1 week under feeder-free conditions for differentiation to neural crest cells. […]
After mixing Firefly luciferase reporter plasmid having the BMP responsive sequence in the promoter region (J. Biol. Chem., 2002, 277(7), 4883-4891) and a plasmid having a nucleic acid sequence coding for Renilla luciferase downstream from CMV promoter, as an internal standard (product of Promega Corp., trade name: phRL-CMV Vector), FuGene® HD (Promega Corp.) was used for transfection into the mesenchymal stem cell-like cells. […] Next, the luciferase activity was measured according to the protocol provided with a Dual-Glo Luciferase Assay System (product of Promega Corp.). The luminescence was detected using an EnVision Multilabel Counter (product of Perkin-Elmer). […]

Molecule | phosphorylation of SMAD1/5/8 ([1]; FOP patient derived cells, 10 and 100 ng/mL activin A, 60 minutes) | amount of total SMAD1/5/8 [1] | transcription activity via ACVR1 (firefly/Renilla luciferase activity, BMP responsive sequence) [2]
human activin A: Recombinant Human/Mouse/Rat Activin A (R&D Systems); homodimer of inhibin βA chains | induced | No significant change | significantly increased
BMP-7: Recombinant Human BMP-7 (R&D Systems); cytokine of the BMP family (protein) STGSKQRSQNRSKTPKNQEALRMANVAENSSSDQRQACKKHELYVSFRDLGWQDWIIAPEGYAAYYCEGECAFPLNSYMNATNHAIVQTLVHFINPETVPKPCCAPTQLNAISVLYFDDSSNVILKKYRNMVVRACGCH |  | No significant change | increased in a concentration-dependent manner
